Laboratory results taken from US20240117018A1.

How the values were obtained:
Experiment in all cases: cell-based or functional assay
[1] = target: HIV-1 Env of pseudovirus Du172.17 (HIV-1)
[2] = target: HIV-1 Env of pseudovirus 1056_10_TA11_1826 (HIV-1)
[3] = target: HIV-1 Env of pseudovirus THRO4156.18 (HIV-1)
[4] = target: HIV-1 Env of pseudovirus Ce0393_C3 (HIV-1)
[5] = target: HIV-1 Env of pseudovirus 6240_08_TA5_4622 (HIV-1)
[6] = target: HIV-1 Env of pseudovirus 249M B10 (HIV-1)
[7] = target: HIV-1 Env of pseudovirus WEAU_d15_410_787 (HIV-1)
[8] = target: HIV-1 Env of pseudovirus Q769.d22 (HIV-1)
[9] = target: HIV-1 Env of pseudovirus Ce1086_B2 (HIV-1)
[10] = target: HIV-1 Env of pseudovirus 1394C9G1(Rev-) (HIV-1)
[11] = target: HIV-1 Env of pseudovirus QH0692.42 (HIV-1)
[12] = target: HIV-1 Env of pseudovirus CNE21 (HIV-1)
[13] = target: HIV-1 Env of pseudovirus 7030102001E5(Rev-) (HIV-1)
[14] = target: HIV-1 Env of pseudovirus Ce703010054_2A2 (HIV-1)
[15] = target: HIV-1 Env of pseudovirus Ce1176_A3 (HIV-1)
[16] = target: HIV-1 Env of pseudovirus CNE5 (HIV-1)
[17] = target: HIV-1 Env of pseudovirus Q23.17 (HIV-1)
[18] = target: HIV-1 Env of pseudovirus 246F C1G (HIV-1)
[19] = target: HIV-1 Env of pseudovirus 1012_11_TC21_3257 (HIV-1)
[20] = target: HIV-1 Env of pseudovirus Ce704809221_1B3 (HIV-1)
[21] = target: HIV-1 Env of pseudovirus Du156.12 (HIV-1)
[22] = target: HIV-1 Env of pseudovirus ZM249M.PL1 (HIV-1)
[23] = target: HIV-1 Env of pseudovirus TRJO4551.58 (HIV-1)
[24] = target: HIV-1 Env of pseudovirus T250-4 (HIV-1)
[25] = target: HIV-1 Env of pseudovirus CNE58 (HIV-1)
[26] = target: HIV-1 Env of pseudovirus ZM109F.PB4 (HIV-1)
[27] = target: HIV-1 Env of pseudovirus ZM214M.PL15 (HIV-1)
[28] = target: HIV-1 Env of pseudovirus HIV-001428-2.42 (HIV-1)
[29] = target: HIV-1 Env of pseudovirus 1006_11_C3_1601 (HIV-1)
[30] = target: HIV-1 Env of pseudovirus 0260.v5.c36 (HIV-1)
[31] = target: HIV-1 Env of pseudovirus CAP210.2.00.E8 (HIV-1)
[32] = target: HIV-1 Env of pseudovirus HIV-0013095-2.11 (HIV-1)
[33] = target: HIV-1 Env of pseudovirus CNE8 (HIV-1)
[34] = target: HIV-1 Env of pseudovirus HIV-16055-2.3 (HIV-1)
[35] = target: HIV-1 Env of pseudovirus HIV-16845-2.22 (HIV-1)
[36] = target: HIV-1 Env of pseudovirus RHPA4259.7 (HIV-1)

In the case of PGT128 (antibody), the neutralization IC50 [1] is reported as 0.028 mg/L, the neutralization IC80 [1] is reported as 0.08 mg/L and the neutralization IC50 [2] is reported as < 0.001 mg/L. For the same substance, the neutralization IC80 [2] was 0.008 mg/L, the neutralization IC50 [3] was > 50 mg/L and the neutralization IC80 [3] was > 50 mg/L. For the same substance, the neutralization IC50 [4] was > 50 mg/L, the neutralization IC80 [4] was > 50 mg/L and the neutralization IC50 [5] was 0.019 mg/L. For the same substance, the neutralization IC80 [5] was 0.055 mg/L, the neutralization IC50 [6] was 7.87 mg/L and the neutralization IC80 [6] was > 50 mg/L. For the same substance, the neutralization IC50 [7] was 0.032 mg/L, the neutralization IC80 [7] was 0.153 mg/L and the neutralization IC50 [8] was > 50 mg/L. The neutralization IC80 [8] was > 50 mg/L, the neutralization IC50 [9] was > 50 mg/L and the neutralization IC80 [9] was > 50 mg/L. It also gave a neutralization IC50 [10] of 0.011 mg/L, a neutralization IC80 [10] of 0.034 mg/L and a neutralization IC50 [11] of 0.029 mg/L. For the same substance, the neutralization IC80 [11] was 0.081 mg/L, the neutralization IC50 [12] was 0.01 mg/L and the neutralization IC80 [12] was 0.026 mg/L. For the same substance, the neutralization IC50 [13] was 0.007 mg/L, the neutralization IC80 [13] was 0.022 mg/L and the neutralization IC50 [14] was > 50 mg/L. For the same substance, the neutralization IC80 [14] was > 50 mg/L, the neutralization IC50 [15] was 0.009 mg/L and the neutralization IC80 [15] was 0.026 mg/L. The IC50 (Titer in TZM.bl cells) [16] was 0.018 mg/L, the IC80 (Titer in TZM.bl cells) [16] was 0.253 mg/L and the neutralization IC50 [17] was 0.009 mg/L. For the same substance, the neutralization IC80 [17] was 0.024 mg/L, the neutralization IC50 [18] was 0.005 mg/L and the neutralization IC80 [18] was 0.014 mg/L. For the same substance, the neutralization IC50 [19] was 0.011 mg/L, the neutralization IC80 [19] was 0.033 mg/L and the neutralization IC50 [20] was 0.026 mg/L. It also gave a neutralization IC80 [20] of 0.072 mg/L, a neutralization IC50 [21] of 0.017 mg/L and a neutralization IC80 [21] of 0.046 mg/L. The neutralization IC50 [22] was 39.7 mg/L, the neutralization IC80 [22] was > 50 mg/L and the neutralization IC50 [23] was 0.018 mg/L. The neutralization IC80 [23] was 0.041 mg/L, the neutralization IC50 [24] was < 0.001 mg/L and the neutralization IC80 [24] was 0.007 mg/L. For the same substance, the neutralization IC50 [25] was 13.8 mg/L, the neutralization IC80 [25] was > 50 mg/L and the neutralization IC50 [26] was > 50 mg/L. The neutralization IC80 [26] was > 50 mg/L, the neutralization IC50 [27] was 1.5 mg/L and the neutralization IC80 [27] was 29.4 mg/L. It also gave a neutralization IC50 [28] of 0.026 mg/L, a neutralization IC80 [28] of 0.095 mg/L and a neutralization IC50 [29] of 0.011 mg/L. The neutralization IC80 [29] was 0.04 mg/L, the neutralization IC50 [30] was 0.058 mg/L and the neutralization IC80 [30] was 0.162 mg/L. The neutralization IC50 [31] was > 50 mg/L, the neutralization IC80 [31] was > 50 mg/L and the neutralization IC50 [32] was > 50 mg/L. For the same substance, the neutralization IC80 [32] was > 50 mg/L, the IC50 (Titer in TZM.bl cells) [33] was 0.019 mg/L and the IC80 (Titer in TZM.bl cells) [33] was 0.052 mg/L. For the same substance, the neutralization IC50 [34] was > 50 mg/L, the neutralization IC80 [34] was > 50 mg/L and the neutralization IC50 [35] was 0.181 mg/L. The neutralization IC80 [35] was 0.834 mg/L, the neutralization IC50 [36] was 0.026 mg/L and the neutralization IC80 [36] was 0.109 mg/L.
In the case of PGT145 (antibody), the neutralization IC50 [1] is reported as > 50 mg/L, the neutralization IC80 [1] is reported as > 50 mg/L and the neutralization IC50 [2] is reported as 0.23 mg/L. For the same substance, the neutralization IC80 [2] was 0.938 mg/L, the neutralization IC50 [3] was 0.01 mg/L and the neutralization IC80 [3] was 0.029 mg/L. The neutralization IC50 [4] was 0.112 mg/L, the neutralization IC80 [4] was 1.23 mg/L and the neutralization IC50 [5] was > 50 mg/L. For the same substance, the neutralization IC80 [5] was > 50 mg/L, the neutralization IC50 [6] was 0.947 mg/L and the neutralization IC80 [6] was 41.3 mg/L. For the same substance, the neutralization IC50 [7] was 1.95 mg/L, the neutralization IC80 [7] was 31.5 mg/L and the neutralization IC50 [8] was 0.26 mg/L. For the same substance, the neutralization IC80 [8] was 25.5 mg/L, the neutralization IC50 [9] was > 50 mg/L and the neutralization IC80 [9] was > 50 mg/L. For the same substance, the neutralization IC50 [10] was 0.001 mg/L, the neutralization IC80 [10] was 0.005 mg/L and the neutralization IC50 [11] was > 50 mg/L. For the same substance, the neutralization IC80 [11] was > 50 mg/L, the neutralization IC50 [12] was < 0.001 mg/L and the neutralization IC80 [12] was 0.009 mg/L. The neutralization IC50 [13] was > 50 mg/L, the neutralization IC80 [13] was > 50 mg/L and the neutralization IC50 [14] was > 50 mg/L. For the same substance, the neutralization IC80 [14] was > 50 mg/L, the neutralization IC50 [15] was > 50 mg/L and the neutralization IC80 [15] was > 50 mg/L. It also gave an IC50 (Titer in TZM.bl cells) [16] of 0.001 mg/L, an IC80 (Titer in TZM.bl cells) [16] of 0.013 mg/L and a neutralization IC50 [17] of 1.32 mg/L. The neutralization IC80 [17] was > 50 mg/L, the neutralization IC50 [18] was > 50 mg/L and the neutralization IC80 [18] was > 50 mg/L. For the same substance, the neutralization IC50 [19] was 0.009 mg/L, the neutralization IC80 [19] was 0.025 mg/L and the neutralization IC50 [20] was 0.102 mg/L. For the same substance, the neutralization IC80 [20] was 0.71 mg/L, the neutralization IC50 [21] was 0.001 mg/L and the neutralization IC80 [21] was 0.018 mg/L. The neutralization IC50 [22] was 1.44 mg/L, the neutralization IC80 [22] was > 50 mg/L and the neutralization IC50 [23] was > 50 mg/L. The neutralization IC80 [23] was > 50 mg/L, the neutralization IC50 [24] was 0.002 mg/L and the neutralization IC80 [24] was 0.039 mg/L. For the same substance, the neutralization IC50 [25] was 0.183 mg/L, the neutralization IC80 [25] was 7.41 mg/L and the neutralization IC50 [26] was 0.042 mg/L. For the same substance, the neutralization IC80 [26] was 0.234 mg/L, the neutralization IC50 [27] was > 50 mg/L and the neutralization IC80 [27] was > 50 mg/L. For the same substance, the neutralization IC50 [28] was 0.001 mg/L, the neutralization IC80 [28] was 0.083 mg/L and the neutralization IC50 [29] was > 50 mg/L. The neutralization IC80 [29] was > 50 mg/L, the neutralization IC50 [30] was > 50 mg/L and the neutralization IC80 [30] was > 50 mg/L. For the same substance, the neutralization IC50 [31] was 37.8 mg/L, the neutralization IC80 [31] was > 50 mg/L and the neutralization IC50 [32] was 9.27 mg/L. For the same substance, the neutralization IC80 [32] was > 50 mg/L, the IC50 (Titer in TZM.bl cells) [33] was 0.272 mg/L and the IC80 (Titer in TZM.bl cells) [33] was 2.24 mg/L. The neutralization IC50 [34] was 0.003 mg/L, the neutralization IC80 [34] was 0.051 mg/L and the neutralization IC50 [35] was > 50 mg/L. The neutralization IC80 [35] was > 50 mg/L, the neutralization IC50 [36] was 0.029 mg/L and the neutralization IC80 [36] was 0.095 mg/L.
